# Results published in publication PMC3380378.
# How the values were obtained:
# Experiment in all cases: purified protein
# [1] = system: O=C(O)C(=O)C[C@@H](O)[C@@H](O)[C@H](O)[C@H](O)COP(=O)(O)O; conditions: Mg2+; pH 10.0
# purified protein [2] = substrate: Nc1ccn([C@@H]2O[C@H](COP(=O)(O)OP(=O)(O)OP(=O)(O)O)[C@@H](O)[C@H]2O)c(=O)n1; type: biochemical, Escherichia coli; conditions: Mg2+; pH 9.3
# purified protein [3] = substrate: O=C(O)C(=O)C[C@@H](O)[C@@H](O)[C@H](O)[C@H](O)CO; type: biochemical, Escherichia coli; conditions: Mg2+; pH 9.3
Molecule,Km [1] [µM],Km (purified protein [2]) [µM],Km (purified protein [3]) [µM]
3-deoxy-D-manno-octulosonic acid 8-phosphate phosphatase (KdsC) (Escherichia coli K-12),370 ± 10,–,–
"3-deoxy-D-manno-octulosonate cytidylyltransferase (KdsB, CMP-KDO synthetase) (Escherichia coli K-12) (protein) MSFVVIIPARYASTRLPGKPLVDINGKPMIVHVLERARESGAERIIVATDHEDVARAVEAAGGEVCMTRADHQSGTERLAEVVEKCAFSDDTVIVNVQGDEPMIPATIIRQVADNLAQRQVGMATLAVPIHNAEEAFNPNAVKVVLDAEGYALYFSRATIPWDRDRFAEGLETVGDNFLRHLGIYGYRAGFIRRYVNWQPSPLEHIEMLEQLRVLWYGEKIHVAVAQEVPGTGVDTPEDLERVRAEMR",–,330 ± 40,280 ± 20
